Data on four molecules can be found in patent US20230022970A1, “USE OF GLIAL CELL LINE-DERIVED NEUROTROPHIC FACTOR (GDNF) FOR THE TREATMENT OF ENTERIC NEUROPATHIES” (TRANSFERT PLUS, société en commandite, priority 2019, published 2023).

Where no end group is shown, it is not given here.

For data set [1], the system named is Hol^Tg/Tg mice (model for Trisomy 21 [Collagen VI]-associated HSCR). Kind of data set: GDNF enema treatment, survival of Hol^Tg/Tg pups. Type of data set: in vivo, mouse. To be noted: 10 μg in 10 μl PBS enema once daily P4-P8, Hol^Tg/Tg mice. The method, then:
(§1) For all enema treatments, mutant mouse pups were identified at P3 via pigmentation-based genotyping. Unless specified otherwise (see FIG. 1), 10 μl enemas consisting of a 1 μg/μl solution of recombinant human mature GDNF (Peprotech cat. #450-10) diluted in PBS were administered daily between P4 to P8. […] Other tested molecules (1 μg/μl solution in 10 μl enemas) included the serotonin receptor (5-HT4R) agonist RS67506 (R&D Systems, Cat. #0990), Noggin (Sigma, Cat. # SRP4675), endothelin-3 (Sigma, Cat. # E9137), serotonin (Sigma, Cat. # H9523), and L-ascorbic acid (Sigma, Cat. # A4403). Enemas were administered using a 24-gauge gavage needle (Fine Science Tools, Canada) attached to a micropipette. The head of the gavage needle was introduced in the rectum just beyond the anus (pre-lubricated with Vaseline™), and enemas were injected over the course of a few seconds. Pups were then placed back with their mother, and either sacrificed at P20 for tissue analysis or checked daily to track survival.
It was first tested if GDNF enemas in young mice could enhance enteric neuron numbers and restore function in distal aganglionic bowel using three mouse models of short-segment HSCR. Selected lines were Holstein (Hol^Tg/Tg; a model for Trisomy 21 [Collagen VI]-associated HSCR) (39), TashT (TashT^Tg/Tg; a model for male-biased HSCR) (40), and Piebald-lethal (Ednrb^S-l/s-l; a model for EDNRB mutation-associated HSCR) (41). The enema volume necessary to fill whole colon, concentration of GDNF homodimer (30 kDa), treatment time window, as well as duration and frequency of therapy were first determined with Hol^Tg/Tg pups (FIGS. 1A-D). […] Remarkably, the selected treatment (i.e. daily administration of 10 μg GDNF in PBS as 10 μl enemas for 5 consecutive days between postnatal day [P]4 to P8) prevented death by megacolon in about half of Hol^Tg/Tg mice at P28, the maximum age of survival for control Hol^Tg/Tg mice (FIG. 2A). Most animals surviving to P28 reached adult age after GDNF treatment and mice evaluated could reproduce (two tested breeding pairs were fertile). […]

For another data set, the system named is Hol^Tg/Tg mice. The experiment in a line: Time-course immunofluorescence of HisGDNF distribution and RET expression in distal colon. Type of data set: in vivo, mouse. The protocol: as §1
Tissue labelling and imaging. […] EdU was detected using the Invitrogen Click-iT EdU Imaging Kit (ThermoFisher Scientific, Cat. # C10337) in accordance with the manufacturer's instructions. […]

Consider `COc1cc(N)c(Cl)cc1C(=O)CCC1CCN(CCNS(C)(=O)=O)CC1` [RS67506], for which the life expectancy entry in data set [1] is “failed to increase life expectancy”.
The same measure, in the same setting: under “endothelin-3 (CTCFTYKDKECVYYCHLDIIW; ends and bridges not checked; cysteine pairing not given here; UniProt P14138 97-117, looked up) [endothelin-3 monomer (26 kDa), Sigma Cat. # E9137, tested neurotrophic molecule]” stands “failed to increase life expectancy”.

B1: HisGDNF: 6×His-tagged version of GDNF used for enema treatments (protein, UniProt P39905 78-211, looked up)
Glial cell line-derived …: SPDKQMAVLPRRERNRQAAAANPENSRGKGRRGQRGKNRGCVLTAIHLNVTDLGLGYETKEELIFRYCSGSCDAAETTYDKILKNLSRNRRLVSDKVGQACCRPIAFDDDLSFLDDNLVYHILRKHSAKRCGCI
modifications: 6xHis tag
notes: 6×His-tagged version of GDNF used for enema treatments
As for B1, in the data set with Hol^Tg/Tg mice (distal colon 2 h after treatment on P4, P6 and P8, Hol^Tg/Tg), the “distribution in colon submucosa, smooth muscles and subsets of enteric neurons” value is reported as “accumulated over time”. Besides, the “levels of the main GDNF receptor RET” value in the data set on Hol^Tg/Tg mice (distal colon, P4-P8 treatment, Hol^Tg/Tg) is “increased”.

B2: Noggin: Noggin homodimer (46 kDa), Sigma Cat. # SRP4675, tested neurotrophic molecule (protein, UniProt Q13253 28-232, looked up)
Noggin: QHYLHIRPAPSDNLPLVDLIEHPDPIFDPKEKDLNETLLRSLLGGHYDPGFMATSPPEDRPGGGGGAAGGAEDLAELDQLLRQRPSGAMPSEIKGLEFSEGLAQGKKQRLSKKLRRKLQMWLWSQTFCPVLYAWNDLGSRFWPRYVKVGSCFSKRSCSVPEGMVCKPSKSVHLTVLRWRCQRRGGQRCGWIPIQYPIISECKCSC
As for B2, the life expectancy result in data set [1] is recorded as “failed to increase life expectancy”.
